Reference: patent publication US20110287023A1 (AstraZeneca / MedImmune, published 2011)
Positions count from the first letter of the chain named.

T1: HMGB1 in joint lysate of adjuvant induced arthritis (AIA) rats (rat, UniProt P63159 2-215)
T1 construct: also called HMGB1 from arthritis joints; joint lysate HMGB1
T1 sequence (looked up): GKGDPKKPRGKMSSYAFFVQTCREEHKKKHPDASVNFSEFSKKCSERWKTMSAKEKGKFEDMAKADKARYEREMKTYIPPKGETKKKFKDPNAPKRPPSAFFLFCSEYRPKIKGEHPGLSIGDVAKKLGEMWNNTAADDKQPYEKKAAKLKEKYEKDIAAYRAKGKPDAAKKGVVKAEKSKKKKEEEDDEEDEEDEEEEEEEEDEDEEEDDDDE

T2: HMG1 purified from calf (bovine) thymus (bovine, UniProt P10103 2-215)
T2 construct: also called Calf thymus HMGB1; thymus HMG1
T2 sequence (looked up): T1 sequence (looked up) with D188E, E201D, D206E

B1: human anti-HMG1 antibody S16 (antibody, IgG1, V domains shown)
VH: EVQLLESGGGLVQPGGSLRLSCAASGFTFSWYSMLWVRQAPGKGLEWVSYISPSGGFTNYADSVKGRFTISRDNSKNTLYLQMNSLRAEDTAVYYCARWDYNSGWYYDHWGQGTLVTVSS
VL: DIQMTQSPDTLSLSPGERATLSCRASQSVNSRNLAWYQQKPGQAPRLLIYGASTRATGIPDRFSGSVSGTEFTLTISSLQPDDFATYYCQQYNSYFTFGQGTKLEIK
notes: full length IgG1 made from a human Fab phage clone; also called ATCC PTA-6259
B2: human anti-HMG1 antibody E11 (antibody, IgG1, V domains shown)
VH: EVQLLESGGGLVQPGGSLRLSCAASGFTFSRYQMNWVRQAPGKGLEWVSSISPSGGHTHYADSVKGRFTISRDNSKNTLYLQMNSLRAEDTAVYYCAKDGRQGKISTVDHWGQGTLVTVSS
VL: DIQMTQSPGTLSLSPGERATLSCRASQSVRSNFLAWYQQKPGQAPRLLIYGASRRASGIPDRFSGSGFGADFTLSISRLEPEDFAVYYCQQYGSSPNTFGQGSRVEIK
notes: full length IgG1 made from a human Fab phage clone

Assays:
[1] = biological target: T1, HMGB1 in joint lysate of adjuvant …; test: immunoprecipitation from AIA rat joint lysate, Western blot; paragraph 81 gives lane 2 as S16
Procedure: Immunoprecipitation and Western Blot: Anti-HMGB1 mAbs (G4 and S6) and isotype control were first biotinylated using EZ-Link Sulfo-NHS-LC-Biotin as instructed by the manufacturer (Pierce). After labeling, the mAb was tested for binding to HMGB1 by ELISA with unlabeled mAbs as controls. The biological samples, joint lysate (30 μl), was mixed with […] biotinylated G4, S6 or isotype control overnight at 4° C. in 300 μl IP buffer [containing 1×PBS, pH 7.2 (Invitrogen), 0.1% Tween 20, 0.5 M sodium chloride, 10 mM sodium butyrate, and a 1:100 dilution of Phosphatase Inhibitor Cocktail I (Sigma)]. For sepsis sera, Tween 20, sodium chloride, sodium butyrate, and Phosphatase Inhibitor Cocktail I were added to 500 μl sera with the same final concentration as IP buffer. Streptavidin Sepharose beads (GE Healthcare) were blocked in 4% BSA-PBS overnight at 4° C., then washed three times with PBS and resuspended in 1×PBS resulting in 50% slurry. The bead slurry (60 μl) was then added to the overnight mAb/sample mixture and mixed for 20 minutes at room temperature. The beads were washed once with PBS, five times with IP Buffer and then washed twice with PBS by spinning at 1000 g for two min. […] The bands were detected by LumiGlo substrate solution (KPL) after washing.

[2] = biological target: T3, recombinant HMG1 produced in E. coli as a calmodulin binding protein (CBP) fusion (human); test: sandwich ELISA: antibody titrated and captured on anti-human IgG Fc, soluble recombinant HMG1 at 2 ug/ml, mouse anti-HMGB1 and anti-mouse IgG-HRP, OD 450
T3 construct: also called rHMG1; rHMGB1
Procedure: Sandwich ELISA (soluble HMG1): Immunoplates (EIA/RIA plate, High binding, Costar) were coated with anti human IgG Fc at 10 μg/ml in PBS (pH 7.2) and incubated at 4° C. overnight. The coating reagent was removed and the plates were rinsed briefly with PBS. The plates were then blocked with 4% milk for 1 hour at 37° C. and rinsed with PBS. The anti-HMG1 antibodies were diluted in 4% milk. For serial dilutions, the antibodies were used at a starting concentration of 20 μg/ml. The diluted anti-HMG1 antibodies were then added into plate and incubated for 1 hr at 37° C. The plate was then washed 10 times with PBST (PBS/0.1% tween 20) and incubate with antigen (HMGB1, 2 μg/ml; or 0.7 μg/ml for native HMGB1) in 4% milk and incubated at 37° C. for 1 h. The plate was then wash 10 times and incubated with mouse anti-HMGB1, 1 μg/ml in 4% milk at 37° C. for 1 h. The plate was washed 10 times and incubated with anti-mouse IgG-HRP at 1:1000 at 37° C. for 1 h. The plate was then washed and developed. HRP activity was detected with Sureblue HRP substrate (KPL). Plates were read at 450 nm using a Kinetic Microplate Reader (Molecular Devices).

[3] = biological target: T2, HMG1 purified from calf (bovine) thymus; test: blocking ELISA: thymus HMGB1 pre-incubated with the antibody, then added to coated RAGE/Fc (blocked partner: RAGE/Fc); one bar per antibody, the antibody's concentration is not given
Procedure: HMG1 binding to RAGE-Ig by ELISA: 50 μl/well of RAGE-Fc fusion protein at 5 μg/ml in PBS was added to each well of an ELISA plate and incubated overnight at 4° C. The plate was then blocked with 200 μl of 5% milk at 37° C. for 1 hr and washed 3× with PBS/Tween. 50 μl/well of diluted HMGB1 solution. For dose curves, HMGB1 concentrations started at 4 ug/ml in PBS. For antibody blocking the HMGB1 was preincubated in another plate with human anti-HMG1 antibodies or buffer, then transferred to the RAGE-coated plate. The plates were then incubated at room temperature for 2 hours and washed 3×. To detect any HMG1 bound to the immobilized RAGE-Fc a mixture of biotinylated mouse anti-HMG1 mAbs (10D4, 4H11, 3E10 and 5C12) each at 1 ug/ml, total Ab: 4 ug/ml, were added to each well and the plate was incubated for 1 hour at room temperature. The plate was then washed and Strepavidin-HPR was added to each well and incubated 15 min. The plate was then washed 3× and blotted dry. 100 μl of TMB developing agent was added and the plate read at 650 nm. Values were calculated as percent of inhibition with HMG1 alone equal to 0% inhibition. The data in FIG. 9 and summarized in Table 1 represent the average of two separate experiments.

Binder	binding result [1]	EC50 (read off the curve) [2] [µg/mL]	binding result [3]
B1	binds	~0.08	
B2			binds
